Test results taken from patent US5763209, “Methods and materials relating to the functional domains of DNA binding proteins” (Arch Development Corporation).

Columns and labels:
Egr-1 Δ284-330 = Egr-1 Δ284-330 (Mus musculus, UniProt P08046 SEQ:1-533, del284-330); test: cell_activity; HeLa, enhanced activation
Description: A series of deletion derivatives, each retaining the zinc finger domain, was assayed for transcriptional activity by transient transfection in HeLa and NIH3T3 cells (see FIG. 9). NIH3T3 and HeLa cells were maintained in Dulbecco's modified Eagle's medium (DMEM) with 10% calf serum. Cells were seeded at 8 ×10^5 cells per 100 mm plate the day before transfection. The media was replaced 2 to 6 hours prior to transfection by calcium phosphate-mediated precipitation. Each precipitate included 1 μg of the internal reference pON260, a CMV driven β-galactosidase plasmid (67), or 3 μg of PCH110, a SV40 driven β-galactosidase plasmid (Pharmacia), and remained on the cells for 16–20 hours. Forty-eight hours after transfection, cell extracts were prepared by freeze thaw lysis in 0.25M Tris-HCl 7.8 with protease inhibitors (1mM PMSF, 1 μg/ml Pepstatin A, and […] Leupeptin).
Deletion analyses were performed as described in Example 10, above. […] The enhanced activation seen with deletion A284–330 is consistent with the loss of a region important for repression or negative regulation.

Egr-1 (full length) = Egr-1 (full length) (Mus musculus, UniProt P08046 SEQ:1-533); test: cell_activity; activation in NIH3T3; dependent on Egr-1 sites
Sequence of Egr-1 (full length) (P08046 whole entry): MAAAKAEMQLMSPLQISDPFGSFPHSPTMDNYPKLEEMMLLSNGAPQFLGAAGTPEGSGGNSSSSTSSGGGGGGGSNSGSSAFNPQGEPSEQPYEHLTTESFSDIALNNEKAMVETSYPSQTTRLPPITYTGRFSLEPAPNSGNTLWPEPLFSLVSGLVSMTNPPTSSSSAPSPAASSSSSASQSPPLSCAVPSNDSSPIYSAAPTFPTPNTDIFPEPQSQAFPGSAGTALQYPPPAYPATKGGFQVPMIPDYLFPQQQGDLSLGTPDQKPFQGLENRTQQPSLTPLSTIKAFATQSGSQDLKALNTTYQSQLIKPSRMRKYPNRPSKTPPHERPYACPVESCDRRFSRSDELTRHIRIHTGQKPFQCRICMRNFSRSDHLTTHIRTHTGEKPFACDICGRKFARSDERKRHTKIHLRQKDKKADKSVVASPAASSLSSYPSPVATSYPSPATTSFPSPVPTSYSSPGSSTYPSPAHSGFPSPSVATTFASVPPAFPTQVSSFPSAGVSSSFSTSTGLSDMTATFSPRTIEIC

Sequence of Egr-1 Δ284-330 (P08046 other isoform, or with tags, fused parts or gaps del284-330 | mutant): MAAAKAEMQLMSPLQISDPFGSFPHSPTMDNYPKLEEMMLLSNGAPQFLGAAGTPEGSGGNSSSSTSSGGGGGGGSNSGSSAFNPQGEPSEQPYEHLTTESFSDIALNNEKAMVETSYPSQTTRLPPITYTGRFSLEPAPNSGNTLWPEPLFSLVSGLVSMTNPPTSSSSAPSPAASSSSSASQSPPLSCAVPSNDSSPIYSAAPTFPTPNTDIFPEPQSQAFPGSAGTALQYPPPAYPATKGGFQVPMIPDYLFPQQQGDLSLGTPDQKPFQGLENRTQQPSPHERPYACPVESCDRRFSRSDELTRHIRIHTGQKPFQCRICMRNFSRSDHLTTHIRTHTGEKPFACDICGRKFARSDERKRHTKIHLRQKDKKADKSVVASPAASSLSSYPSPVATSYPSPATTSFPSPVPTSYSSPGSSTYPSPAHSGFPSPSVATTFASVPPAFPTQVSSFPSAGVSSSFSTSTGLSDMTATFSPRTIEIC

B1: EBS1^3 foscat (3 Egr-1 sites in front of minimal c-fos promoter) (dsDNA)
DNA 1: CGCCCCCGC
DNA 2: GCGGGGGCG
Egr-1 Δ284-330
  activity: ~5 fold of wild type
Egr-1 (full length)
  activity: 10 fold
